Data as given in patent publication US20210388087A1 (Chugai, published 2021).
Where a chain is given by its changes, count along the chain named. In names and notes the source's numbering stands.

T1: Human CD3eg linker (human)
T1 construct: single-chain construct; also called recombinant human CD3
T1 chain: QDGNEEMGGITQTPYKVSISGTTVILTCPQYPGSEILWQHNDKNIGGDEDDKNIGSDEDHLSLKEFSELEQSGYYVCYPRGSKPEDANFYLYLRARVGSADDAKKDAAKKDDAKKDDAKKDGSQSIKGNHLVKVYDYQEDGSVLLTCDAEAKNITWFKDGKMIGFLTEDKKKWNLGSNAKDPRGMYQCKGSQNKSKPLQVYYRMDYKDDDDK

B1: dBBDu183H A98N/dBBDu072L (antibody, name in Kabat numbering, V domains shown)
VH: QVQLVESGGGLVQPGRSLRLSCAASGFTFSNAWMHWVRQAPGKGLEWVAQIKDKGNAYAAYYAPSVKGRFTISRDDSKNSIYLQMNSLKTEDTAVYYCHYVHYNSASTVLPAFGVDAWGQGTTVTVSS
VL: DIVMTQSPLSLPVTPGEPASISCQASQELVHMNRNTYLHWYQQKPGQAPRLLIYKVSNRFPGVPDRFSGSGSGTDFTLKISRVEAEDVGVYYCAQGTSVPFTFGQGTKLEIK
B2: dBBDu183H A100fS/dBBDu072L (antibody, name in Kabat numbering, V domains shown)
VH: B1 VH with N104A, A112S
VL: B1 VL
B3: dBBDu183H A100D/dBBDu072L (antibody, name in Kabat numbering, V domains shown)
VH: B1 VH with N104A, A106D
VL: B1 VL
B4: dBBDu183H A100R/dBBDu072L (antibody, name in Kabat numbering, V domains shown)
VH: B1 VH with N104A, A106R
VL: B1 VL
B5: dBBDu183H A100fQ/dBBDu072L (antibody, name in Kabat numbering, V domains shown)
VH: B1 VH with N104A, A112Q
VL: B1 VL
B6: dBBDu183H A100K/dBBDu072L (antibody, name in Kabat numbering, V domains shown)
VH: B1 VH with N104A, A106K
VL: B1 VL
B7: dBBDu183H A98W/dBBDu072L (antibody, name in Kabat numbering, V domains shown)
VH: B1 VH with N104W
VL: B1 VL
B8: dBBDu183H A100N/dBBDu072L (antibody, name in Kabat numbering, V domains shown)
VH: B1 VH with N104A, A106N
VL: B1 VL
B9: dBBDu183H A100fD/dBBDu072L (antibody, name in Kabat numbering, V domains shown)
VH: B1 VH with N104A, A112D
VL: B1 VL
B10: dBBDu183H A102K/dBBDu072L (antibody, name in Kabat numbering, V domains shown)
VH: B1 VH with N104A, A117K
VL: B1 VL
B11: dBBDu183H A100fY/dBBDu072L (antibody, name in Kabat numbering, V domains shown)
VH: B1 VH with N104A, A112Y
VL: B1 VL
B12: dBBDu183H A98R/dBBDu072L (antibody, name in Kabat numbering, V domains shown)
VH: B1 VH with N104R
VL: B1 VL
B13: dBBDu183H A100fN/dBBDu072L (antibody, name in Kabat numbering, V domains shown)
VH: B1 VH with N104A, A112N
VL: B1 VL
B14: dBBDu183H A100fT/dBBDu072L (antibody, name in Kabat numbering, V domains shown)
VH: B1 VH with N104A, A112T
VL: B1 VL
B15: dBBDu183H A100fV/dBBDu072L (antibody, name in Kabat numbering, V domains shown)
VH: B1 VH with N104A, A112V
VL: B1 VL
B16: dBBDu183H A98V/dBBDu072L (antibody, name in Kabat numbering, V domains shown)
VH: B1 VH with N104V
VL: B1 VL
B17: dBBDu183H A100fW/dBBDu072L (antibody, name in Kabat numbering, V domains shown)
VH: B1 VH with N104A, A112W
VL: B1 VL
B18: dBBDu183H A102E/dBBDu072L (antibody, name in Kabat numbering, V domains shown)
VH: B1 VH with N104A, A117E
VL: B1 VL
B19: dBBDu183H A100G/dBBDu072L (antibody, name in Kabat numbering, V domains shown)
VH: B1 VH with N104A, A106G
VL: B1 VL
B20: dBBDu183H A100F/dBBDu072L (antibody, name in Kabat numbering, V domains shown)
VH: B1 VH with N104A, A106F
VL: B1 VL
B21: dBBDu183H A100Q/dBBDu072L (antibody, name in Kabat numbering, V domains shown)
VH: B1 VH with N104A, A106Q
VL: B1 VL
B22: dBBDu183H A100fR/dBBDu072L (antibody, name in Kabat numbering, V domains shown)
VH: B1 VH with N104A, A112R
VL: B1 VL
B23: dBBDu183H A100fE/dBBDu072L (antibody, name in Kabat numbering, V domains shown)
VH: B1 VH with N104A, A112E
VL: B1 VL
B24: dBBDu183H A100S/dBBDu072L (antibody, name in Kabat numbering, V domains shown)
VH: B1 VH with N104A, A106S
VL: B1 VL
B25: dBBDu183H A100T/dBBDu072L (antibody, name in Kabat numbering, V domains shown)
VH: B1 VH with N104A, A106T
VL: B1 VL
B26: dBBDu183H A102H/dBBDu072L (antibody, name in Kabat numbering, V domains shown)
VH: B1 VH with N104A, A117H
VL: B1 VL
B27: dBBDu183H A98T/dBBDu072L (antibody, name in Kabat numbering, V domains shown)
VH: B1 VH with N104T
VL: B1 VL
B28: dBBDu183H A100H/dBBDu072L (antibody, name in Kabat numbering, V domains shown)
VH: B1 VH with N104A, A106H
VL: B1 VL
B29: dBBDu183H A100Y/dBBDu072L (antibody, name in Kabat numbering, V domains shown)
VH: B1 VH with N104A, A106Y
VL: B1 VL
B30: dBBDu183H A100E/dBBDu072L (antibody, name in Kabat numbering, V domains shown)
VH: B1 VH with N104A, A106E
VL: B1 VL
B31: dBBDu183H A100fG/dBBDu072L (antibody, name in Kabat numbering, V domains shown)
VH: B1 VH with N104A, A112G
VL: B1 VL
B32: dBBDu183H A102G/dBBDu072L (antibody, name in Kabat numbering, V domains shown)
VH: B1 VH with N104A, A117G
VL: B1 VL
B33: dBBDu183H A100W/dBBDu072L (antibody, name in Kabat numbering, V domains shown)
VH: B1 VH with N104A, A106W
VL: B1 VL
B34: dBBDu183H A100fF/dBBDu072L (antibody, name in Kabat numbering, V domains shown)
VH: B1 VH with N104A, A112F
VL: B1 VL
B35: dBBDu183H A100V/dBBDu072L (antibody, name in Kabat numbering, V domains shown)
VH: B1 VH with N104A, A106V
VL: B1 VL
B36: dBBDu183H A98Q/dBBDu072L (antibody, name in Kabat numbering, V domains shown)
VH: B1 VH with N104Q
VL: B1 VL
B37: dBBDu183H A102D/dBBDu072L (antibody, name in Kabat numbering, V domains shown)
VH: B1 VH with N104A, A117D
VL: B1 VL
B38: dBBDu183H A98Y/dBBDu072L (antibody, name in Kabat numbering, V domains shown)
VH: B1 VH with N104Y
VL: B1 VL
B39: dBBDu183H A98S/dBBDu072L (antibody, name in Kabat numbering, V domains shown)
VH: B1 VH with N104S
VL: B1 VL
B40: dBBDu183H A100fK/dBBDu072L (antibody, name in Kabat numbering, V domains shown)
VH: B1 VH with N104A, A112K
VL: B1 VL
B41: dBBDu183H A102F/dBBDu072L (antibody, name in Kabat numbering, V domains shown)
VH: B1 VH with N104A, A117F
VL: B1 VL
B42: dBBDu183H A100fH/dBBDu072L (antibody, name in Kabat numbering, V domains shown)
VH: B1 VH with N104A, A112H
VL: B1 VL

Biological target: T1, Human CD3eg linker
Experiment: SPR, vs unmutated H183/L072

Q: B1 was tested. Which “fold change of affinity” value did it give?
A: Its value is 1.5 fold.

Q: Which “fold change of affinity” value does the source give for B2 here?
A: Its value is 1.7 fold.

Q: For B3, which “fold change of affinity” value is on record?
A: Its value is 0.5 fold.

Q: For B4, which “fold change of affinity” value is on record?
A: The value was 2.1 fold.

Q: For B5, which “fold change of affinity” value is on record?
A: The value was 1.2 fold.

Q: For B6, which “fold change of affinity” value is on record?
A: The value was 1.9 fold.

Q: With B7 as the binder, how does the “fold change of affinity” value read?
A: The value was 7 fold.

Q: For B8, which “fold change of affinity” value is on record?
A: The value was 0.8 fold.

Q: How did the “fold change of affinity” value turn out when B9 was run?
A: The value was 0.4 fold.

Q: For B10, which “fold change of affinity” value is on record?
A: Its value is 1.5 fold.

Q: How did the “fold change of affinity” value turn out when B11 was run?
A: The value was 1.5 fold.

Q: With B12 as the binder, how does the “fold change of affinity” value read?
A: The value was 2.7 fold.

Q: For B13, which “fold change of affinity” value is on record?
A: The value was 1.3 fold.

Q: With B14 as the binder, how does the “fold change of affinity” value read?
A: The value was 1.6 fold.

Q: How did the “fold change of affinity” value turn out when B15 was run?
A: The value was 1 fold.

Q: B16 was tested. Which “fold change of affinity” value did it give?
A: Its value is 4.7 fold.

Q: How did the “fold change of affinity” value turn out when B17 was run?
A: The value was 0.7 fold.

Q: For B18, which “fold change of affinity” value is on record?
A: Its value is 1.1 fold.

Q: B19 was tested. Which “fold change of affinity” value did it give?
A: The value was 1.4 fold.

Q: With B20 as the binder, how does the “fold change of affinity” value read?
A: Its value is 1.4 fold.

Q: B21 was tested. Which “fold change of affinity” value did it give?
A: The value was 0.8 fold.

Q: Which “fold change of affinity” value does the source give for B22 here?
A: Its value is 1.6 fold.

Q: How did the “fold change of affinity” value turn out when B23 was run?
A: The value was 0.5 fold.

Q: B24 was tested. Which “fold change of affinity” value did it give?
A: Its value is 1.1 fold.

Q: B25 was tested. Which “fold change of affinity” value did it give?
A: Its value is 0.9 fold.

Q: How did the “fold change of affinity” value turn out when B26 was run?
A: The value was 3.6 fold.

Q: With B27 as the binder, how does the “fold change of affinity” value read?
A: The value was 2 fold.

Q: With B28 as the binder, how does the “fold change of affinity” value read?
A: Its value is 1.2 fold.

Q: For B29, which “fold change of affinity” value is on record?
A: The value was 1.7 fold.

Q: With B30 as the binder, how does the “fold change of affinity” value read?
A: Its value is 0.5 fold.

Q: With B31 as the binder, how does the “fold change of affinity” value read?
A: Its value is 1.5 fold.

Q: How did the “fold change of affinity” value turn out when B32 was run?
A: Its value is 1 fold.

Q: For B33, which “fold change of affinity” value is on record?
A: The value was 1.9 fold.

Q: B34 was tested. Which “fold change of affinity” value did it give?
A: The value was 1.1 fold.

Q: B35 was tested. Which “fold change of affinity” value did it give?
A: Its value is 1.2 fold.

Q: With B36 as the binder, how does the “fold change of affinity” value read?
A: The value was 0.7 fold.

Q: Which “fold change of affinity” value does the source give for B37 here?
A: The value was 1.3 fold.

Q: B38 was tested. Which “fold change of affinity” value did it give?
A: Its value is 25.1 fold.

Q: How did the “fold change of affinity” value turn out when B39 was run?
A: Its value is 1 fold.

Q: B40 was tested. Which “fold change of affinity” value did it give?
A: Its value is 1.4 fold.

Q: With B41 as the binder, how does the “fold change of affinity” value read?
A: The value was 2 fold.

Q: For B42, which “fold change of affinity” value is on record?
A: The value was 1.2 fold.
